Results reported in the Human Domainome abundance scans (Beltran et al. 2025).

B1: Gamma-crystallin C, residues 4 to 79; numbered along this chain, P07315 (parent)
chain: ITFYEDRAFQGRSYETTTDCPNLQPYFSRCNSIRVESGCWMLYERPNYQGQQYLLRRGEYPDYQQWMGLSDSIRSC

Variants of: B1
Experiment: abundance fitness (aPCA) (normalised: wild type 0, dead -1); higher = more abundant; growth selection in yeast, the domain comes from the species named
Settings: Homo sapiens

Abundance fitness, by site and new letter:
Y63: G -0.041, S -0.06, P 0.094, M -0.12, A -0.115, E -0.146, I -0.028, L -0.097, N -0.088, F 0.032, R -0.049, H -0.234, V -0.103, Q -0.12, D -0.067, W -0.126, T -0.113
D71: I -0.106, Y -0.027, R -0.011, F -0.132, L 0.021, H -0.092, M -0.133, N -0.007, K 0.094, Q -0.121, E 0.027, S -0.056, P -0.135, C -0.017, W -0.02, T -0.059, V -0.004
Q64: C 0.062, G -0.045, Y -0.182, K -0.042, F -0.09, P -0.013, N 0.044, A -0.08, E 0.024, M -0.101, S -0.188, H 0.155, L -0.081, W -0.021, T -0.004, I -0.039, V -0.022
Q65: R -0.036, A 0.006, N 0.014, W -0.119, D -0.019, F -0.253, S -0.042, Y 0.029, T -0.089, L -0.088, C 0, V -0.041, E 0.052, M 0.015, P 0.027, I -0.133, H -0.065, K -0.175
L69: C 0.07, T 0.047, F 0.147, Y -0.001, E 0.017, S -0.153, Q 0.08, V 0.02, N -0.045, H -0.045, P -0.07, W 0.098, G -0.028, R -0.021, I -0.23, K -0.104, M -0.163
E59: V -0.053, A -0.07, S 0.049, G 0.019, N -0.155, P 0.003, Q 0.009, M -0.029, I -0.789, F -0.039, D 0.025, T -0.196, W -0.275, R -0.181, L -0.084, K 0
G58: P -0.674, S -0.039, K -0.197, M -0.223, T -0.102, Y 0.009, N 0.034, E -0.272, R -0.16, D 0.251, V -1, L -0.659, W -0.408, Q -0.166
Y60: L -0.247, F -0.198
R57: Q 0.044, E 0.064, Y -0.269, C 0.142, I -0.053, T 0.244, A 0.046, K 0.049, S -0.039, M 0.07, G 0.051, V 0.024, L -0.059, P -0.009, H 0.001, W -0.143, F 0.059
S72: I 0.007, P -0.025, L -0.052, K 0.058, A -0.136, G 0.022, R 0.01, D -0.21, Y 0.01, F 0.119, V -0.012, H -0.172, M 0.019, T -0.145, C -0.082
R56: C 0.086, F 0.195, N 0.034, T 0.071, E 0.005, P -0.115, Y 0.255, M 0.118, V 0.039, D -0.107, Q -0.003, W -0.029, K -0.018, A -0.019, S -0.611, L -0.062
D62: T -0.055, Q -0.062, M -0.03, G -0.013, L -0.086, Y -0.037, S -0.071, N -0.043, P -0.401, H -0.106, V -0.015, R -0.034, I -0.26, F 0.041, W 0.059, A -0.006, C -0.177
Q52: H 0.082, W -0.141, T -0.114, V -0.076, L -0.017, N -0.053, Y -0.326, S -0.041, M -0.108, I -0.105, R -0.072, G -0.071
L54: I -0.135, M -0.044, K 0.057, W -0.073, R -0.104, Q 0.096, H -0.068, D -0.149, A -0.016, C 0.085, N -0.025, S -0.003, T -0.234, E -0.004, P -0.092, Y -0.393, V 0.02
Y53: M -0.005, G -0.143, V -0.025, I 0.131, A -0.127, R -0.019, Q -0.094, N -0.062, E -0.142, K -0.026, P -0.947, C -0.113, S 0.022, F -0.015, W 0.084, T -0.146
P61: H -0.205, Q -0.051, C -0.072, V -0.083, M 0.002, E -0.094, F -0.039, Y -0.018, K 0, R -0.038, G -0.041, I -0.129, T -0.142, A -0.004, L -0.064, S 0.004, D -0.034
L55: N -0.85, M -0.237, D -0.807, H -1.03, G -0.571, S -0.701, W -0.631, R -0.794, V -0.048, F -0.246, T -0.318, A -0.368, Y -0.04, C -0.178, K -0.853, I 0.038
M67: H -0.01, V 0.008, G -0.113, S -0.057, Q -0.042, Y -0.067, P -0.057, N -0.065, W 0.044, C -0.173, A -0.03, T -0.018, R -0.005, D -0.106, E -0.131, K -0.043, L -0.011, F -0.091
G68: S 0.014, V 0.007, Q -0.018, N -0.053, R 0.079, Y 0.097, A 0.003, T 0.068, P -0.02, L -0.027, W 0.003, K 0.028, C 0.117, D -0.042, E -0.062
W66: N 0.091, Y 0.069, I -0.006, A 0.039, C -0.168, L -0.082, H -0.01, T 0.021, D -0.12, E 0.068, G 0.059, M -0.093, Q 0.046, F -0.009, V 0.018, P 0.005, K -0.023
I73: E -0.655, D -0.861, C 0.047, A 0.055, F -0.083
S70: H -0.181, N -0.021, D -0.074, A 0.02, W 0.048, G -0.007, P 0.082, C 0.101, Y 0.047, K -0.114, V 0.075, R -0.064, L -0.047, I 0.09, T -0.072, Q -0.077, M -0.132, F -0.053
